Data: patent US20240230671A9, “COMPOSITIONS AND METHODS FOR IDENTIFICATION OF CROSS-REACTIVE ALLERGENIC PROTEINS AND TREATMENT OF ALLERGIES” (Alladapt Immunotherapeutics, Inc., priority 2021, published 2024)

Columns and labels:
dendritic cells = test: Mouse study: CD4+ T cells from peptide-dosed mice incubated with antigen-loaded dendritic cells; format: cell-based; conditions: 50 ug peptide orally for 4 weeks; tetanus toxoid as control
Experimental: Mouse Study: A composition comprising 50 ug of the cross-reactive peptide comprising the MHC-II-binding T-cell epitope 5′-[…]-3′ and a pharmaceutical acceptable carrier is administered orally to mice for 4 weeks. Two weeks after the last dose, blood is drawn from a peripheral vein and CD4+ T cells are purified by cell sorting on magnetic beads. CD4+ T-cells are added to culture medium in which histocompatible dendritic cells, used as antigen presenting cells, are incubated with either the peptide sequence or with tetanus toxoid as a control for 2 hr at room temperature. The cells are then washed and purified CD4+ T-cells are added to culture medium. […] Incubation of CD4+ T-cells with dendritic cells loaded with the hazelnut Cor_i_9 antigen results in dendritic cell apoptosis.

[1] = Single allergen subcutaneous immunotherapy in walnut and hazelnut allergic subjects; format: in vivo
IgE = test: ALEX2 chip ELISA-based multiplex assay for IgE binding to allergens; set-up: species or system human
Description: In another example, forty-two human serum samples with self-reported clinical allergies were obtained and analyzed in triplicate on an ALEX2 chip (developed by Macro Array Diagnostics), which enables an ELISA-based multiplex assay for the detection of IgE adsorption to allergen components and extracts. […] The assay detects the binding of IgE to these allergens in an ELISA-based multiplex fashion. The dynamic range of the chip spans a little over two orders of magnitude, 0.3-50 kUA/L.

Molecule: HWNLNAHSVVYALRG
- apoptosis of antigen-presenting dendritic cells by CD4+ T cells (dendritic cells): induce apoptosis of dendritic cells presenting the Cor_i_9 antigen
- allergic reaction after immunotherapy [1]: fail to react to both walnuts and hazelnuts

B1: Bet v 1: Silver birch allergen, Bet v 1 family, recombinant allergen on ALEX2 chip (protein)
chain: GVFNYETETTSVIPAARLFKAFILDGDNLFPKVAPQAISSVENIEGNGGPGTIKKISFPEGFPFKYVKDRVDEVDHTNFKYNYSVIEGGPIGDTLEKISNEIKIVATPDGGSILKISNKYHTKGDHEVKAEQVKASKEMGETLLRAVESYLLAHSDAYN
- samples with a positive value for the allergen (IgE; of forty two human serum samples run on the ALEX2 chip): 22 samples

B2: Mal d 1: Apple allergen, Bet v 1 family, on ALEX2 chip (protein, UniProt P43211 2-159, looked up)
Major allergen Mal d 1: GVYTFENEFTSEIPPSRLFKAFVLDADNLIPKIAPQAIKQAEILEGNGGPGTIKKITFGEGSQYGYVKHRIDSIDEASYSYSYTLIEGDALTDTIEKISYETKLVACGSGSTIKSISHYHTKGNIEIKEEHVKVGKEKAHGLFKLIESYLKDHPDAYN
- Pearson Correlation coefficient based on ALEX data (IgE; Bet v 1 family, correlation of IgE levels with Bet v 1, 22 Bet v 1-positive human serum samples): 0.62

B3: Derp: European house dust mite allergen, Tropomyosin family, on ALEX2 chip (protein, UniProt O18416 1-284, looked up)
Tropomyosin: MEAIKNKMQAMKLEKDNAIDRAEIAEQKARDANLRAEKSEEEVRALQKKIQQIENELDQVQEQLSAANTKLEEKEKALQTAEGDVAALNRRIQLIEEDLERSEERLKIATAKLEEASQSADESERMRKMLEHRSITDEERMEGLENQLKEARMMAEDADRKYDEVARKLAMVEADLERAEERAETGESKIVELEEELRVVGNNLKSLEVSEEKAQQREEAHEQQIRIMTTKLKEAEARAEFAERSVQKLQKEVGRLEDELVHEKEKYKSISDELDQTFAELTGY
modifications: tropomyosin
notes: European house dust mite allergen, Tropomyosin family, on ALEX2 chip
- Pearson Correlation coefficient based on ALEX data (IgE; Tropomyosin family, correlation of IgE levels with Penm1): 0.99
